Measurements published in the supplement of paper PMC7877785.
± gives the uncertainty stated by the source.

Test: self-splicing fitness, log relative to wild type (ln ratio); higher = more splicing; Tetrahymena group I intron in knt gene, E. coli kanamycin selection, DiMSum; sequences stand for … in CUCUCU…GGAGGGAAAAGUUAUCAGGCAUGCACCUGGUAGCUAGUCUUUAAACCAAUAGAUUGCAUCGGUUUAAAAGGCAAGACCGUCAAAUUGCGGGAAAGGGGUCAACAGCCGUUCAGUACCAAGUCUCAGGGGAAACUUUGAGAUGGCCUUGCAAAGGGUAUGGUAAUAAGCUGACGGACAUGGUCCUAACCACGCAGCCAAGUCCUAAGUCAACAGAUCUUCUGUUGAUAUGGAUGCAGUUCACAGACUAAAUGUCGGUCGGGGAAGAUGUAUUCUUCUCAUAAGAUAUAGUCGGACCUCUCCUUAAUGGGAGCUAGCGGAUGAAGUGAUGCAACACUGGAGCCGCUGGGAACUAAUUUGUAUGCGAAAGUAUAUUGAUUAGUUUUGGAGUACUCGUGGUCG
Outline: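 Six replicate transformations of E. coli BL21(DE3) with a pET-22b(+) library were grown overnight at 37°C or 30°C. The library randomised all eight P1ex-region intron nucleotides, the intron lying in the knt kanamycin-resistance gene, and plates were LB agar with or without 25 μg/mL kanamycin plus 100 μg/mL carbenicillin, 50 μM IPTG and 0.2% rhamnose. Pooled colonies were amplicon-sequenced on an Illumina HiSeq 2500, and fitness is the DiMSum error-weighted combination of wild-type-normalised replicate fold changes, kanamycin versus none.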

Row | Sequence | self-splicing fitness (ln) (30 °C) | self-splicing fitness (ln) (37 °C)
1 | AGCCAGCAAUAUUACGAUGC | -3.79 ± 0.47 | -0.986 ± 0.2
2 | CAGGAGCAAUAUUACGCUAU | -3.39 ± 0.4 | -2.39 ± 0.24
3 | CCUUAGCAAUAUUACGGUAG | -4.09 ± 0.28 | -2.1 ± 0.23
4 | GGGCAGCAAUAUUACGGCUU | -0.964 ± 0.15 | -1.14 ± 0.16
5 | GCGUAGCAAUAUUACGUGUA | -3.63 ± 0.21 | -2.43 ± 0.12
6 | AUUUAGCAAUAUUACGCGCU | -0.923 ± 0.18 | -0.889 ± 0.15
7 | AAAGAGCAAUAUUACGGACC | – | -1.61 ± 0.3
8 | UGCUAGCAAUAUUACGGCAC | -3.7 ± 0.42 | -2.19 ± 0.39
9 | UGUCAGCAAUAUUACGACCA | -0.0909 ± 0.084 | 0.138 ± 0.12
10 | CCGGAGCAAUAUUACGAAAG | -2.31 ± 0.11 | -1.05 ± 0.12
11 | GCCUAGCAAUAUUACGCACG | -1.79 ± 0.23 | -1.43 ± 0.19
12 | CUCUAGCAAUAUUACGAAAU | -3.13 ± 0.21 | -3.18 ± 0.27
13 | GGGGAGCAAUAUUACGUGAA | -2.71 ± 0.085 | -1.81 ± 0.12
14 | CUUGAGCAAUAUUACGUUCG | -3.19 ± 0.3 | -1.71 ± 0.21
15 | CGGAAGCAAUAUUACGCUUG | – | -2.42 ± 0.27
16 | CUAAAGCAAUAUUACGGUAG | -0.409 ± 0.043 | -0.0448 ± 0.059
17 | AGUAAGCAAUAUUACGCGGU | -2.66 ± 0.24 | -2.46 ± 0.29
18 | UUCAAGCAAUAUUACGUCAC | -3.57 ± 0.34 | -2.42 ± 0.39
19 | CCUUAGCAAUAUUACGCCCA | -1.96 ± 0.34 | –
20 | GACAAGCAAUAUUACGAUAU | -1.33 ± 0.099 | -1.4 ± 0.1

Row | Sequence | self-splicing fitness (ln) (30 °C) | self-splicing fitness (ln) (37 °C)
21 | UAUCAGCAAUAUUACGUGCA | -0.589 ± 0.054 | 0.447 ± 0.078
22 | GGCCAGCAAUAUUACGUUUG | -3.15 ± 0.14 | -2.4 ± 0.18
23 | AGCAAGCAAUAUUACGUCUU | -1.38 ± 0.068 | -0.234 ± 0.074
24 | CAGCAGCAAUAUUACGAACG | -0.451 ± 0.073 | 0.304 ± 0.11
25 | UAAUAGCAAUAUUACGAGUC | -2.97 ± 0.19 | -3.77 ± 0.42
26 | ACUGAGCAAUAUUACGAUAG | -5.01 ± 0.39 | -1.78 ± 0.17
27 | CAAAAGCAAUAUUACGUAGG | -0.97 ± 0.057 | 0.00194 ± 0.083
28 | CGGAAGCAAUAUUACGGGGC | -2.49 ± 0.19 | -2.71 ± 0.26
29 | CUUCAGCAAUAUUACGACUG | -0.803 ± 0.077 | -0.505 ± 0.092
30 | UUUAAGCAAUAUUACGGUAC | -2.22 ± 0.28 | –
31 | GCUCAGCAAUAUUACGCAAU | -1.02 ± 0.078 | 0.487 ± 0.11
32 | GAAGAGCAAUAUUACGGAAC | – | -0.903 ± 0.29
33 | GAAAAGCAAUAUUACGAAGG | -3.27 ± 0.24 | -3.01 ± 0.37
34 | AUAAAGCAAUAUUACGGCAU | 0.53 ± 0.098 | -0.0243 ± 0.11
35 | AUCAAGCAAUAUUACGUGGU | -2.83 ± 0.2 | -3.11 ± 0.21
36 | UUGUAGCAAUAUUACGUUUG | -1.83 ± 0.15 | -1.87 ± 0.2
37 | UGCAAGCAAUAUUACGAGGU | -3.41 ± 0.23 | -2.26 ± 0.17
38 | GGUAAGCAAUAUUACGUGCA | -0.586 ± 0.089 | -0.233 ± 0.13
39 | GUAGAGCAAUAUUACGGGUA | -4.17 ± 0.35 | -1.75 ± 0.19
